From the Human Domainome abundance scans (Beltran et al. 2025) come the findings set out here.

The labels stand for the following.
B1: POU domain, class 3, transcription factor 2, residues 262 to 338; numbered along this chain, P20265 (parent)
chain: EDTPTSDDLEQFAKQFKQRRIKLGFTQADVGLALGTLYGNVFSQTTICRFEALQLSFKNMCKLKPLLNKWLEEADSS

± gives the uncertainty stated by the source.

In this series the parent is B1. The series is described as follows: abundance fitness (aPCA) (normalised: wild type 0, dead -1); higher = more abundant; growth selection in yeast, the domain comes from the species named. The note with it: Homo sapiens.
As to EDTPTSDDLEQFAKQFKQRRIKLGFTQADVGLALGTLYGSVFSQTTICRFEALQLSFKNMCKLKPLLNKWLEEADSS [N40S], the abundance fitness is 0.022 ± 0.041. For EDTPTSDDLEQFAKQFKQRRIKLGFTQADVGLALGTLYGNVFSQTTICRFEALQLSFKNMCKLKPLLNKWLEEASSS [D75S] the value was 0.032 ± 0.033; for EDTPTSDDLEQFAKQFKQRRIKLGFTQADVGLALGTLYGNVFSQTTICRTEALQLSFKNMCKLKPLLNKWLEEADSS [F50T], -0.682 ± 0.076. As to EDTPTSDDLEQFAKQFKQRRIKLGFTQADVGLALGTLYGNVFSQTTICRFEALQLSFKNMCKLKPLLNKWLEEADSH [S77H], the abundance fitness was -0.011 ± 0.079. The result for EDTPTSDDLEQFAKQFKQRRIKLGFTQADVGLALGTLYGNVFSQTTICRFEALQLSFKNMCKLKPLLNKWLEEADSN [S77N] reads -0.169 ± 0.11; that for EDTPTSDDLEQFAKQFKQRRIKLGFTQADVGLALGTLYGNVFSQTTICRFEALQLSFKNMCKLKALLNKWLEEADSS [P65A], -0.139 ± 0.094. Turning to EDTPTSDDLEQFAKQFKQRRIKLGFTQADVGLALGTLQGNVFSQTTICRFEALQLSFKNMCKLKPLLNKWLEEADSS [Y38Q], the abundance fitness is -0.141 ± 0.052. As for EDTPTSDDLEQFAKQFKQRRIKLGFTQADVGLALGTLTGNVFSQTTICRFEALQLSFKNMCKLKPLLNKWLEEADSS [Y38T], the abundance fitness came out at 0.032 ± 0.039. Take EDTPTSDDLEQFAKQFKQRRIKLGFTQADVGLALGTLMGNVFSQTTICRFEALQLSFKNMCKLKPLLNKWLEEADSS [Y38M]: the abundance fitness was -0.331 ± 0.052. Take EDTPTSDDLEQFAKQFKQRRIKLGFTQADVGLALGTLYGNVFSQLTICRFEALQLSFKNMCKLKPLLNKWLEEADSS [T45L]: the abundance fitness is -0.127 ± 0.033. With EDTPTSDDLEQFAKQFKQRRIKLGFTQADVGLALGTLYGNVFSQITICRFEALQLSFKNMCKLKPLLNKWLEEADSS [T45I], the abundance fitness was -0.213 ± 0.057. As to EDTPESDDLEQFAKQFKQRRIKLGFTQADVGLALGTLYGNVFSQTTICRFEALQLSFKNMCKLKPLLNKWLEEADSS [T5E], the abundance fitness was -0.144 ± 0.039. On to EDTPNSDDLEQFAKQFKQRRIKLGFTQADVGLALGTLYGNVFSQTTICRFEALQLSFKNMCKLKPLLNKWLEEADSS [T5N], for which the abundance fitness amounted to 0.026 ± 0.046.

As to EDTPTSDDLEQFAKQFKQRRICLGFTQADVGLALGTLYGNVFSQTTICRFEALQLSFKNMCKLKPLLNKWLEEADSS [K22C], the abundance fitness was -0.042 ± 0.057. As for EDTPTSDDLEQFAKQFKQRRIKLGFTQADVGLALGTLYGNVFSQTTICRFEALQLAFKNMCKLKPLLNKWLEEADSS [S56A], the abundance fitness was -0.345 ± 0.043. For EDTPTSDDLEQFAKQFKQRRIKLGFTQADVGLALGTLYGNVFSQTTICRFEALQLPFKNMCKLKPLLNKWLEEADSS [S56P] the value was 0.044 ± 0.047. The result for EDTPTSDDLEQFAKQFKQRRIKLGFTQADVGLALGTLYGNVFSQTTICRFEALQLDFKNMCKLKPLLNKWLEEADSS [S56D] reads -0.093 ± 0.065; that for EDTPTSDDLEQFAKQFKQRRIKLGFTQADVGLALGTLYGNVFSQTTICRFEALQLLFKNMCKLKPLLNKWLEEADSS [S56L], -0.633 ± 0.06; that for EDTPTSDDLEQFAKQFKQRRIKLGFTQADVGLALGTLYGNVFSQTTICRFEALQLSFKNMCKLKPKLNKWLEEADSS [L66K], -0.096 ± 0.043. The result for EDTPTSDDLECFAKQFKQRRIKLGFTQADVGLALGTLYGNVFSQTTICRFEALQLSFKNMCKLKPLLNKWLEEADSS [Q11C] reads -0.141 ± 0.052; that for EDTPTSDDLEQFAKQFKQRRIKLGFTQADVGLALGTLYGNVFSQTEICRFEALQLSFKNMCKLKPLLNKWLEEADSS [T46E], -0.035 ± 0.037; that for EDTPTSDDPEQFAKQFKQRRIKLGFTQADVGLALGTLYGNVFSQTTICRFEALQLSFKNMCKLKPLLNKWLEEADSS [L9P], -0.483 ± 0.067. As for EDTPTSDDLEQFAKQFKQRRIKLGFTQADVGLALGTLYGNVFSQTTICRFEALQLSSKNMCKLKPLLNKWLEEADSS [F57S], the abundance fitness was -0.053 ± 0.033. Regarding EDTPTSDDLEQFAKQFKQRSIKLGFTQADVGLALGTLYGNVFSQTTICRFEALQLSFKNMCKLKPLLNKWLEEADSS [R20S], the abundance fitness is -0.694 ± 0.084. For QDTPTSDDLEQFAKQFKQRRIKLGFTQADVGLALGTLYGNVFSQTTICRFEALQLSFKNMCKLKPLLNKWLEEADSS [E1Q], the abundance fitness is -0.088 ± 0.12. For EDTPTSDDLEQFAKMFKQRRIKLGFTQADVGLALGTLYGNVFSQTTICRFEALQLSFKNMCKLKPLLNKWLEEADSS [Q15M] the value was 0.051 ± 0.042.

For EDTPTSDDLEQFAKQFKQRRIKLGFTQYDVGLALGTLYGNVFSQTTICRFEALQLSFKNMCKLKPLLNKWLEEADSS [A28Y], the abundance fitness was -0.117 ± 0.065. For EDTPTSDDLEQFAKQFKQRRIKLGFTQSDVGLALGTLYGNVFSQTTICRFEALQLSFKNMCKLKPLLNKWLEEADSS [A28S] the value was -0.086 ± 0.037. For EDTPTSDDLEQFAKQFKQRRIKLGFTQLDVGLALGTLYGNVFSQTTICRFEALQLSFKNMCKLKPLLNKWLEEADSS [A28L] the value was -0.196 ± 0.04; for EDTPTSDDLEQFAKQFKQRRIKLGFTQADVGLALGTLYGNVFSQTTICRFEALQLSFENMCKLKPLLNKWLEEADSS [K58E], 0.069 ± 0.039; for EDTPTSDDLEQFAKQFKQRRIKLGFTQADVGLALGTLYGNVFSQTTICRFEALQLSFLNMCKLKPLLNKWLEEADSS [K58L], -0.163 ± 0.042. As for EDTQTSDDLEQFAKQFKQRRIKLGFTQADVGLALGTLYGNVFSQTTICRFEALQLSFKNMCKLKPLLNKWLEEADSS [P4Q], the abundance fitness is 0.053 ± 0.052. For EDTRTSDDLEQFAKQFKQRRIKLGFTQADVGLALGTLYGNVFSQTTICRFEALQLSFKNMCKLKPLLNKWLEEADSS [P4R] the value was -0.027 ± 0.033. For EDTETSDDLEQFAKQFKQRRIKLGFTQADVGLALGTLYGNVFSQTTICRFEALQLSFKNMCKLKPLLNKWLEEADSS [P4E] the value was 0.002 ± 0.045; for EDTITSDDLEQFAKQFKQRRIKLGFTQADVGLALGTLYGNVFSQTTICRFEALQLSFKNMCKLKPLLNKWLEEADSS [P4I], 0.096 ± 0.08.

EDTPTSDDLEQFAEQFKQRRIKLGFTQADVGLALGTLYGNVFSQTTICRFEALQLSFKNMCKLKPLLNKWLEEADSS [K14E]: the abundance fitness was determined as 0.018 ± 0.081.
